Results: PMC6897951, “Unusual features of the c-ring of F1FO ATP synthases” (Scientific Reports, 2019)

Biological target: the molecule itself
Assay: crystal structure; in meso crystallisation (monooleoyl lipidic phase) of solubilised cF1FO, 27.4 mg/mL, 0.1 M MES pH 5.8, 1.4 M ammonium sulfate, 22 °C; space group I121; 2.3 Å

B1: c-subunit of the spinach chloroplast F1FO ATP synthase (cF1FO), as the c14-ring (natural protein, Spinacia oleracea (spinach), UniProt P69447 1-81, looked up)
chain: MNPLIAAASVIAAGLAVGLASIGPGVGQGTAAGQAVEGIARQPEAEGKIRGTLLLSLAFMEALTIYGLVVALALLFANPFV
notes: ATP synthase subunit c of the chloroplast FO, Spinacia oleracea; Native protein from leaves; also called c1 subunit; c1 protomer; source: only the c14-ring crystallised; copies: 14
stoichiometry N: 14
